Results taken from patent publication US20260274985A1 (MYTHIC THERAPEUTICS, published 2026).

Biological target: T1, Human TROP2 Protein, His Tag (Acro Biosystems) (human, UniProt P09758 27-274)
T1 construct: Bought protein; also called TACSTD2; not shown: His tag
T1 sequence: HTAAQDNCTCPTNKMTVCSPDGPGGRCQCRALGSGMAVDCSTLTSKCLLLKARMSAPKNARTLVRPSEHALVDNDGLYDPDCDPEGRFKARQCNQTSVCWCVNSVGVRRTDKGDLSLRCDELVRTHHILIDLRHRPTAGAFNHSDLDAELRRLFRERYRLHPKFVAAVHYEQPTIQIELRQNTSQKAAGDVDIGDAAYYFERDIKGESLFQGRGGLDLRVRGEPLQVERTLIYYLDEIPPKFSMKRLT
Assay: BLI (Octet)

B1: MYT12422 (hu7E6SVG variant, HCV substitutions at 51, 106) (antibody, V domains shown)
VH: QVQLQESGPGLVKPSETLSLTCTVSGGSISSYGVHWIRQPPGKGLEWIGVHWTSGVTDYNSALMGRVTISVDTSKNQFSLKLSSVTAADTAVYYCARDGDYDRYTHDYWGQGTLVTVSS
VL: DIVMTQSPDSLAVSLGERATINCRASKSVSTSGYSYMHWYQQKPGQPPKLLIYLASNLESGVPDRFSGSGSGTDFTLTISSLQAEDVAVYYCQHSRELPYTFGQGTKLEIK
binding result: binds

B2: MYT12438 (hu7E6SVG variant, HCV substitutions at 56, 103, 106) (antibody, V domains shown)
VH: QVQLQESGPGLVKPSETLSLTCTVSGGSISSYGVHWIRQPPGKGLEWIGVIWTSGHTDYNSALMGRVTISVDTSKNQFSLKLSSVTAADTAVYYCARDGDYDHYTHDYWGQGTLVTVSS
VL: DIVMTQSPDSLAVSLGERATINCRASKSVSTSGYSYMHWYQQKPGQPPKLLIYLASNLESGVPDRFSGSGSGTDFTLTISSLQAEDVAVYYCQHSRELPYTFGQGTKLEIK
binding result: binds

B3: MYT12444 (hu7E6SVG variant, LCV substitutions at 60, 93) (antibody, V domains shown)
VH: QVQLQESGPGLVKPSETLSLTCTVSGGSISSYGVHWIRQPPGKGLEWIGVIWTSGVTDYNSALMGRVTISVDTSKNQFSLKLSSVTAADTAVYYCARDGDYDRYTMDYWGQGTLVTVSS
VL: DIVMTQSPDSLAVSLGERATINCRASKSVSTSGYSYMHWYQQKPGQPPKLLIYLASNLEHGVPDRFSGSGSGTDFTLTISSLQAEDVAVYYCHHSRELPYTFGQGTKLEIK
notes: Full IgG in Expi293 supernatant
binding result: binds

B4: MYT12441 (hu7E6SVG variant, LCV substitutions at 59, 94 (Ala at 94)) (antibody, V domains shown)
VH: QVQLQESGPGLVKPSETLSLTCTVSGGSISSYGVHWIRQPPGKGLEWIGVIWTSGVTDYNSALMGRVTISVDTSKNQFSLKLSSVTAADTAVYYCARDGDYDRYTMDYWGQGTLVTVSS
VL: DIVMTQSPDSLAVSLGERATINCRASKSVSTSGYSYMHWYQQKPGQPPKLLIYLASNLHSGVPDRFSGSGSGTDFTLTISSLQAEDVAVYYCQASRELPYTFGQGTKLEIK
notes: as for B3
binding result: binds

B5: MYT12423 (hu7E6SVG variant, HCV substitutions at 56, 102) (antibody, V domains shown)
VH: QVQLQESGPGLVKPSETLSLTCTVSGGSISSYGVHWIRQPPGKGLEWIGVIWTSGHTDYNSALMGRVTISVDTSKNQFSLKLSSVTAADTAVYYCARDGDYHRYTMDYWGQGTLVTVSS
VL: DIVMTQSPDSLAVSLGERATINCRASKSVSTSGYSYMHWYQQKPGQPPKLLIYLASNLESGVPDRFSGSGSGTDFTLTISSLQAEDVAVYYCQHSRELPYTFGQGTKLEIK
binding result: binds

B6: MYT12428 (hu7E6SVG variant, HCV substitutions at 103, 106) (antibody, V domains shown)
VH: QVQLQESGPGLVKPSETLSLTCTVSGGSISSYGVHWIRQPPGKGLEWIGVIWTSGVTDYNSALMGRVTISVDTSKNQFSLKLSSVTAADTAVYYCARDGDYDHYTHDYWGQGTLVTVSS
VL: DIVMTQSPDSLAVSLGERATINCRASKSVSTSGYSYMHWYQQKPGQPPKLLIYLASNLESGVPDRFSGSGSGTDFTLTISSLQAEDVAVYYCQHSRELPYTFGQGTKLEIK
binding result: binds

B7: MYT12442 (hu7E6SVG variant, LCV substitutions at 59, 97) (antibody, V domains shown)
VH: QVQLQESGPGLVKPSETLSLTCTVSGGSISSYGVHWIRQPPGKGLEWIGVIWTSGVTDYNSALMGRVTISVDTSKNQFSLKLSSVTAADTAVYYCARDGDYDRYTMDYWGQGTLVTVSS
VL: DIVMTQSPDSLAVSLGERATINCRASKSVSTSGYSYMHWYQQKPGQPPKLLIYLASNLHSGVPDRFSGSGSGTDFTLTISSLQAEDVAVYYCQHSRHLPYTFGQGTKLEIK
notes: as for B3
binding result: binds

B8: MYT12443 (hu7E6SVG variant, LCV substitutions at 59, 101) (antibody, V domains shown)
VH: QVQLQESGPGLVKPSETLSLTCTVSGGSISSYGVHWIRQPPGKGLEWIGVIWTSGVTDYNSALMGRVTISVDTSKNQFSLKLSSVTAADTAVYYCARDGDYDRYTMDYWGQGTLVTVSS
VL: DIVMTQSPDSLAVSLGERATINCRASKSVSTSGYSYMHWYQQKPGQPPKLLIYLASNLHSGVPDRFSGSGSGTDFTLTISSLQAEDVAVYYCQHSRELPYHFGQGTKLEIK
notes: as for B3
binding result: binds

B9: MYT12436 (hu7E6SVG variant, HCV substitutions at 51, 56, 106) (antibody, V domains shown)
VH: QVQLQESGPGLVKPSETLSLTCTVSGGSISSYGVHWIRQPPGKGLEWIGVHWTSGHTDYNSALMGRVTISVDTSKNQFSLKLSSVTAADTAVYYCARDGDYDRYTHDYWGQGTLVTVSS
VL: DIVMTQSPDSLAVSLGERATINCRASKSVSTSGYSYMHWYQQKPGQPPKLLIYLASNLESGVPDRFSGSGSGTDFTLTISSLQAEDVAVYYCQHSRELPYTFGQGTKLEIK
binding result: binds

B10: MYT12432 (hu7E6SVG variant, HCV substitutions at 33, 56, 103) (antibody, V domains shown)
VH: QVQLQESGPGLVKPSETLSLTCTVSGGSISSYHVHWIRQPPGKGLEWIGVIWTSGHTDYNSALMGRVTISVDTSKNQFSLKLSSVTAADTAVYYCARDGDYDHYTMDYWGQGTLVTVSS
VL: DIVMTQSPDSLAVSLGERATINCRASKSVSTSGYSYMHWYQQKPGQPPKLLIYLASNLESGVPDRFSGSGSGTDFTLTISSLQAEDVAVYYCQHSRELPYTFGQGTKLEIK
binding result: binds

B11: MYT12426 (hu7E6SVG variant, HCV substitutions at 102, 103) (antibody, V domains shown)
VH: QVQLQESGPGLVKPSETLSLTCTVSGGSISSYGVHWIRQPPGKGLEWIGVIWTSGVTDYNSALMGRVTISVDTSKNQFSLKLSSVTAADTAVYYCARDGDYHHYTMDYWGQGTLVTVSS
VL: DIVMTQSPDSLAVSLGERATINCRASKSVSTSGYSYMHWYQQKPGQPPKLLIYLASNLESGVPDRFSGSGSGTDFTLTISSLQAEDVAVYYCQHSRELPYTFGQGTKLEIK
binding result: binds

B12: MYT12437 (hu7E6SVG variant, HCV substitutions at 51, 103, 106) (antibody, V domains shown)
VH: QVQLQESGPGLVKPSETLSLTCTVSGGSISSYGVHWIRQPPGKGLEWIGVHWTSGVTDYNSALMGRVTISVDTSKNQFSLKLSSVTAADTAVYYCARDGDYDHYTHDYWGQGTLVTVSS
VL: DIVMTQSPDSLAVSLGERATINCRASKSVSTSGYSYMHWYQQKPGQPPKLLIYLASNLESGVPDRFSGSGSGTDFTLTISSLQAEDVAVYYCQHSRELPYTFGQGTKLEIK
binding result: binds

B13: MYT12435 (hu7E6SVG variant, HCV substitutions at 51, 56, 103) (antibody, V domains shown)
VH: QVQLQESGPGLVKPSETLSLTCTVSGGSISSYGVHWIRQPPGKGLEWIGVHWTSGHTDYNSALMGRVTISVDTSKNQFSLKLSSVTAADTAVYYCARDGDYDHYTMDYWGQGTLVTVSS
VL: DIVMTQSPDSLAVSLGERATINCRASKSVSTSGYSYMHWYQQKPGQPPKLLIYLASNLESGVPDRFSGSGSGTDFTLTISSLQAEDVAVYYCQHSRELPYTFGQGTKLEIK
binding result: binds

B14: MYT12427 (hu7E6SVG variant, HCV substitutions at 102, 106) (antibody, V domains shown)
VH: QVQLQESGPGLVKPSETLSLTCTVSGGSISSYGVHWIRQPPGKGLEWIGVIWTSGVTDYNSALMGRVTISVDTSKNQFSLKLSSVTAADTAVYYCARDGDYHRYTHDYWGQGTLVTVSS
VL: DIVMTQSPDSLAVSLGERATINCRASKSVSTSGYSYMHWYQQKPGQPPKLLIYLASNLESGVPDRFSGSGSGTDFTLTISSLQAEDVAVYYCQHSRELPYTFGQGTKLEIK
binding result: binds

B15: MYT12430 (hu7E6SVG variant, HCV substitutions at 33, 51, 103) (antibody, V domains shown)
VH: QVQLQESGPGLVKPSETLSLTCTVSGGSISSYHVHWIRQPPGKGLEWIGVHWTSGVTDYNSALMGRVTISVDTSKNQFSLKLSSVTAADTAVYYCARDGDYDHYTMDYWGQGTLVTVSS
VL: DIVMTQSPDSLAVSLGERATINCRASKSVSTSGYSYMHWYQQKPGQPPKLLIYLASNLESGVPDRFSGSGSGTDFTLTISSLQAEDVAVYYCQHSRELPYTFGQGTKLEIK
binding result: binds
